The assay addresses mutant murine LIGHT (a.a. 79-82, EKLI, deleted), expressed on the cell surface (murine) (UniProt Q9QYH9). Nature of the assay: cell-based or functional assay.

mutant murine LIGHT (a.a. 79-82, EKLI, deleted), expressed on the cell surface (murine), sequence (Q9QYH9 other isoform, or with tags, fused parts or gaps mutant limits assumed): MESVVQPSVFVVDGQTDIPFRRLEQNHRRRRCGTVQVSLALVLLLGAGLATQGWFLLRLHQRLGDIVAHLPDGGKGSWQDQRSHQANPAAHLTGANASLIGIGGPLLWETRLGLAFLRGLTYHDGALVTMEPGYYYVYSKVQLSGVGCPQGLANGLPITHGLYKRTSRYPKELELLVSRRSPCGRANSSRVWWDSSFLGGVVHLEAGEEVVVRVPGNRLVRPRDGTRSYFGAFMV
LTβR-human Ig (Fc fusion), sequence (P50284 31-223): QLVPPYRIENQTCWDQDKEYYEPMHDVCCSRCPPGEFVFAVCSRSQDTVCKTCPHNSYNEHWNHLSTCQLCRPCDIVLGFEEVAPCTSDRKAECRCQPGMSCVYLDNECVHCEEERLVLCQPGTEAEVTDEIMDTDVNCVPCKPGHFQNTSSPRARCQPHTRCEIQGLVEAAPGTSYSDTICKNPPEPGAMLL

For the substance LTβR-human Ig (Fc fusion), the Incidence of tumor growth (Percentage), 10^6 Ag104L^d-LIGHT^m in C3B6F1 mice treated with LTβR-Ig is 100 % (6/6 mice).

(Values after patent US20090092640A1.)
